Results as given in article PMC3295573 (2012).

Target: T1, LidA(FL), untagged (Legionella pneumophila strain Corby)
T1 chain: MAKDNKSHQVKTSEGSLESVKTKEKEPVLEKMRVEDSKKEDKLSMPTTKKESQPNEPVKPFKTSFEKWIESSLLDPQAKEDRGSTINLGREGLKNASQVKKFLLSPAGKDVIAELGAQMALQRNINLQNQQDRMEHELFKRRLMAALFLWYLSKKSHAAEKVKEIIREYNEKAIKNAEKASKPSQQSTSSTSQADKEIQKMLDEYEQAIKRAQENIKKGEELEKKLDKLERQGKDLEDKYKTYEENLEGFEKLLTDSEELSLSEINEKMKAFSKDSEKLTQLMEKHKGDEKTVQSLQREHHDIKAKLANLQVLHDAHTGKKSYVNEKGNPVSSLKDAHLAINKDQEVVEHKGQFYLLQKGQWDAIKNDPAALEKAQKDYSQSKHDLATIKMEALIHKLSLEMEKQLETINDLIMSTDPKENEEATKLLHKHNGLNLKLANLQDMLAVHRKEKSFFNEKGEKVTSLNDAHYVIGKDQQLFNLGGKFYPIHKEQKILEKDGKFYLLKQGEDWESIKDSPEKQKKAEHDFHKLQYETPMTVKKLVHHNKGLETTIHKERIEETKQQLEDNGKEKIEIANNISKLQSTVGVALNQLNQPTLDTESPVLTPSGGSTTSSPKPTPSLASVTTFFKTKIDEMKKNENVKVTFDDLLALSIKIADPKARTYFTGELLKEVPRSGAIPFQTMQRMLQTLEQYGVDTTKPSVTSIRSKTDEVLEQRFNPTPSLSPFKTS
Test: ITC

B1: Rab22 (FL) (natural protein)
chain: MALRELKVCLLGDTGVGKSSIVWRFVEDSFDPNINPTIGASFMTKTVQYQNELHKFLIWDTAGQERFRALAPMYYRGSAAAIIVYDITKEETFSTLKNWVKELRQHGPPNIVVAIAGNKCDLIDVREVMERDAKDYADSIHAIFVETSAKNAININELFIEISRRIPSTDANLPSGGKGFKLRRQPSEPKRSCC
Kd: 200 nM
